Assay results: patent publication US20090068110A1, “ANTIBODIES TO INSULIN-LIKE GROWTH FACTOR RECEPTOR” (Genentech, Inc., priority 2006, published 2009)

Tested on: IGF-1R signaling (phospho-IGF-1R, AKT, ERK1/2)
Assay: Western blotting of IGF-1R signaling in MCF7 cells
Type: cell-based, human
Conditions: for inhibition of IGF-I-mediated AKT activation: serum-starved MCF7, IGF-I 50 ng/ml; for inhibition of IGF-II-mediated IGF-1R phosphorylation and downstream AKT and MAPK1/2 activation: serum-starved MCF7, IGF-II 100 ng/ml
Experimental: Also examined was the effect of these antibodies on ligand-dependent IGF-1R signaling by directly analyzing IGF-1R phosphorylation as well as major downstream pathways, such as AKT and MAPK activation. In this assay, MCF7 cells were grown in 6-well plates and serum was withdrawn for 16 hours. […] The cells were directly lysed in SDS sample buffer, and the lysate was analyzed by Western blotting using antibodies against IGF-1R, phospho-IGF-1R, AKT, phospho-AKT, ERK1/2, phospho-ERK1/2 (also called MAPK1/2 and phospho-MAPK1/2) (all from Cell Signaling Technology, Inc.; Beverly, Mass., USA).
For the IGF-1R signaling pathway analysis, MCF7 cells were grown in six-well plates for 24 hours and then serum starved (serum-free and phenol-free RPMI medium supplemented with 1 mg/mL BSA) overnight. The cells were first incubated with h10H5 for 20 minutes, then stimulated with 50 ng/mL IGF-1 or 100 ng/mL IGF-11 for ten minutes. Cells were directly lysed in SDS sample buffer to preserve protein phosphorylation. After brief sonication, the lysates were separated by SDS-PAGE and transferred to nitrocellulose membranes (Invitrogen; Carlsbad, Calif.), which were probed with anti-phospho-IGF-1R, AKT, and ERK1/2 antibodies. The same blots were then stripped using Stripping Buffer™ (Pierce Biotechnology; Rockford, Ill.) and re-probed with antibodies against total IGF-1R β, AKT, and ERK1/2.

B1: 9F2: mouse monoclonal anti-IGF-1R antibody from hybridoma 9F2.6.2, ATCC PTA-7018 (antibody, V domains shown)
VH: QIQLVQSGPELKKPGETVKISCKASGYTLANYGMNWVKQAPGKGFKWMGWINTNTGKPTYSDEFKGRFVFSLETSASTAYLLINNLSNEDTATYFCARSIYYYGSRYFNVWGAGTT
VL: DIQMTQSTSSLSASLGDRVTISCRASQDINNYLTWYQQKPDGTVKLLIYYTSRLHSGVPSRFSGSGSGTDYSLTITNLEQEDFATYFCQQGNTLPWTFGEGTKVEIKR
inhibition of IGF-I-mediated AKT activation: potently prevented AKT activation
inhibition of IGF-II-mediated IGF-1R phosphorylation and downstream AKT and MAPK1/2 activation: remained as strong inhibitors

B2: 10H5: mouse monoclonal anti-IGF-1R antibody from hybridoma 10H5.3.4, ATCC PTA-7007 (antibody, V domains shown)
VH: QVQLQQPGAELVKPGASVTLSCKASGYTFTRFWIHWVKQRPGQGLEWIGEINPSNGRTNYNENFKNKATLTVDTSSSTAYMQLSSLTSEVSVVYYCARGGRLDQWGQGTT
VL: DIVMTQSQKFMSTSLGDRVSVTCKASQNVGSNVAWYQQKPGQSPEALIYSASYRYSGVPDRFTGSGSGTDFTLTISNVQSEDLAEYFCHQYNNYPYTFGGGTKVEIKR
inhibition of IGF-I-mediated AKT activation: potently prevented AKT activation
inhibition of IGF-II-mediated IGF-1R phosphorylation and downstream AKT and MAPK1/2 activation: remained as strong inhibitors
